This note sets out measurements from PMC10681739, “High-throughput data and modeling reveal insights into the mechanisms of cooperative DNA-binding by transcription factor proteins”.

Sequences and labels used below:
T1: ETS1 (Homo sapiens, UniProt P14921)
T1 sequence: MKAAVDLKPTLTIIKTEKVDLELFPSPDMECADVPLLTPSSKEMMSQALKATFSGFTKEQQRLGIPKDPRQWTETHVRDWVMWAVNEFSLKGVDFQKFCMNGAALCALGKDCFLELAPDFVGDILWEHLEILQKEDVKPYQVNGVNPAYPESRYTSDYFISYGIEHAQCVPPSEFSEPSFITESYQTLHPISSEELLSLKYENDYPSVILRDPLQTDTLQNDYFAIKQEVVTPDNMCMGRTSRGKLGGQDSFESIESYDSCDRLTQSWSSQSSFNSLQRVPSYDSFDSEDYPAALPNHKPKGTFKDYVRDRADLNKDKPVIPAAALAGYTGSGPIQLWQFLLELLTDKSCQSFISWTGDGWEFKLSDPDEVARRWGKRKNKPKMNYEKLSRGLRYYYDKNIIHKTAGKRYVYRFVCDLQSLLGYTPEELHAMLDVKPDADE

B1: Table S2 B row 1635 (dsDNA)
DNA 1: GGACAGGAAGTTCCTGCAGCTTCTACCCCAAACCTA
DNA 2: TAGGTTTGGGGTAGAAGCTGCAGGAACTTCCTGTCC
B2: Table S2 B row 123 (dsDNA)
DNA 1: ACAACCCGGAAGTTGGCGCAGCGCGCTTGCCAATGG
DNA 2: CCATTGGCAAGCGCGCTGCGCCAACTTCCGGGTTGT
B3: Table S2 B row 4091 (dsDNA)
DNA 1: GGCATTCACTTCCGGTCTGGGGCCTACGGCGGCGGC
DNA 2: GCCGCCGCCGTAGGCCCCAGACCGGAAGTGAATGCC
B4: Table S2 B row 185 (dsDNA)
DNA 1: GCCAGGAGGACTTCCGGGTGGGTGTGATATCTGCGA
DNA 2: TCGCAGATATCACACCCACCCGGAAGTCCTCCTGGC
B5: Table S2 C row 4 (dsDNA)
DNA 1: GAAAGAGCGAAATGTTGCGGTTTAGTTAATGCTTTG
DNA 2: CAAAGCATTAACTAAACCGCAACATTTCGCTCTTTC
B6: Table S2 B row 1811 (dsDNA)
DNA 1: GGTTTCGCTTCCGGGTTAGGCGGCCGGAGAAGCGTA
DNA 2: TACGCTTCTCCGGCCGCCTAACCCGGAAGCGAAACC
B7: Table S2 C row 154 (dsDNA)
DNA 1: CCGTAATCTTCATAAACCTCAATGCTCAAGGTGCAG
DNA 2: CTGCACCTTGAGCATTGAGGTTTATGAAGATTACGG
B8: Table S2 B row 2669 (dsDNA)
DNA 1: CCCCTCAGCTTCCGGGTGCTGCGCCCGAGGCCGAGA
DNA 2: TCTCGGCCTCGGGCGCAGCACCCGGAAGCTGAGGGG
B9: Table S2 C row 22 (dsDNA)
DNA 1: CTTGTTCAAGCAATTTGAGGTTTTTTAGGGAGGTTG
DNA 2: CAACCTCCCTAAAAAACCTCAAATTGCTTGAACAAG
B10: Table S2 C row 138 (dsDNA)
DNA 1: AGTAGTGCTTTTTCAACCACAGACCAACATTTGAGA
DNA 2: TCTCAAATGTTGGTCTGTGGTTGAAAAAGCACTACT
B11: Table S2 C row 1 (dsDNA)
DNA 1: CCCTCATCTGAGAACACCACATTTCTCCCTCTGTCA
DNA 2: TGACAGAGGGAGAAATGTGGTGTTCTCAGATGAGGG
B12: Table S2 C row 152 (dsDNA)
DNA 1: CTTTCATCTCTGACATGTGGCTTCTAAGGGTACACT
DNA 2: AGTGTACCCTTAGAAGCCACATGTCAGAGATGAAAG
B13: Table S2 C row 81 (dsDNA)
DNA 1: AGCCTGACTCTGTGCTGTGGTTGTGAGGCTGGAATG
DNA 2: CATTCCAGCCTCACAACCACAGCACAGAGTCAGGCT
B14: Table S2 C row 153 (dsDNA)
DNA 1: GTAACAACACCAAGGACCACAAATGTGTATGTTGAA
DNA 2: TTCAACATACACATTTGTGGTCCTTGGTGTTGTTAC
B15: Table S2 B row 2731 (dsDNA)
DNA 1: AGAACCACTTCCTCTCAGTAAATCACAGAGACTGTA
DNA 2: TACAGTCTCTGTGATTTACTGAGAGGAAGTGGTTCT
B16: Table S2 C row 117 (dsDNA)
DNA 1: ACAGAGCCATTACCTACCACAGAGCTGACGTGAACA
DNA 2: TGTTCACGTCAGCTCTGTGGTAGGTAATGGCTCTGT
B17: Table S2 B row 2131 (dsDNA)
DNA 1: CTACTTTCCGGTCAACGCGGCCTGGGGTACCACCTC
DNA 2: GAGGTGGTACCCCAGGCCGCGTTGACCGGAAAGTAG
B18: Table S2 C row 168 (dsDNA)
DNA 1: AACAGATACTCAAAAACCGCTGGCTGAACACATGGA
DNA 2: TCCATGTGTTCAGCCAGCGGTTTTTGAGTATCTGTT
B19: Table S2 B row 3240 (dsDNA)
DNA 1: CTGTCCGCGACATCCGGGACCTGGGGGACCGCCGAT
DNA 2: ATCGGCGGTCCCCCAGGTCCCGGATGTCGCGGACAG
B20: Table S2 C row 84 (dsDNA)
DNA 1: ATCTATTATGAGCCTACCACCATGCTAGACAAGTTG
DNA 2: CAACTTGTCTAGCATGGTGGTAGGCTCATAATAGAT
B21: Table S2 B row 741 (dsDNA)
DNA 1: CAACTTCCGGGGCCGGTTGCCTGGCAACAGCAGGAG
DNA 2: CTCCTGCTGTTGCCAGGCAACCGGCCCCGGAAGTTG
B22: Table S2 C row 64 (dsDNA)
DNA 1: GACAGAAAGCAAATTAGTGGTAGCCAAGGGCTAGGG
DNA 2: CCCTAGCCCTTGGCTACCACTAATTTGCTTTCTGTC
B23: Table S2 C row 119 (dsDNA)
DNA 1: GGAAAGGTTGACGATAGTGGTTAAGTGGCTCGGCCT
DNA 2: AGGCCGAGCCACTTAACCACTATCGTCAACCTTTCC
B24: Table S2 C row 176 (dsDNA)
DNA 1: ATATCCACTCAGTAGTGTGGTTTGTAAGGACTAAAT
DNA 2: ATTTAGTCCTTACAAACCACACTACTGAGTGGATAT
B25: Table S2 B row 4089 (dsDNA)
DNA 1: GCTGTTTCCTGCTGATAAAAACACCCCTCAACTTCA
DNA 2: TGAAGTTGAGGGGTGTTTTTATCAGCAGGAAACAGC
B26: Table S2 C row 38 (dsDNA)
DNA 1: CAATTTAGCCTTTTAACCACTAAACTCCCTTGCCTA
DNA 2: TAGGCAAGGGAGTTTAGTGGTTAAAAGGCTAAATTG
B27: Table S2 B row 526 (dsDNA)
DNA 1: TTACTTCCTGAGGGTGCACAGGCTGGGGTCGTCTAT
DNA 2: ATAGACGACCCCAGCCTGTGCACCCTCAGGAAGTAA
B28: Table S2 B row 3533 (dsDNA)
DNA 1: CCATTTCCCGCCTACCGACCTGCTGCACCTCACGGA
DNA 2: TCCGTGAGGTGCAGCAGGTCGGTAGGCGGGAAATGG
B29: Table S2 B row 3820 (dsDNA)
DNA 1: GGCGGCTTCCGGGATCTGCCTGGCGCTTGCTTTGTC
DNA 2: GACAAAGCAAGCGCCAGGCAGATCCCGGAAGCCGCC
B30: Table S2 B row 16 (dsDNA)
DNA 1: CCACTGCTTCCGCCTTCTCTGCTGGCTGAGGGGAGC
DNA 2: GCTCCCCTCAGCCAGCAGAGAAGGCGGAAGCAGTGG
B31: Table S2 B row 1200 (dsDNA)
DNA 1: GGTTCATTTCCTTTTCCTCCTTGGGGTATAAAAGAG
DNA 2: CTCTTTTATACCCCAAGGAGGAAAAGGAAATGAACC
B32: Table S2 B row 2712 (dsDNA)
DNA 1: TGGGGCGAAATCCACTGACTTCCGGCTACGCCGTTG
DNA 2: CAACGGCGTAGCCGGAAGTCAGTGGATTTCGCCCCA
B33: Table S2 C row 3 (dsDNA)
DNA 1: GCGAGAGCAGCAAGAACCACACCCAGCAGCAATGTC
DNA 2: GACATTGCTGCTGGGTGTGGTTCTTGCTGCTCTCGC
B34: Table S2 B row 3124 (dsDNA)
DNA 1: TCCACATCCTGCTCCTCGGGTTTACGGCGAGGACTC
DNA 2: GAGTCCTCGCCGTAAACCCGAGGAGCAGGATGTGGA
B35: Table S2 C row 99 (dsDNA)
DNA 1: ACAAGCATTTGATTCTGTGGGTCCCCAATGTTGGAA
DNA 2: TTCCAACATTGGGGACCCACAGAATCAAATGCTTGT
B36: Table S2 C row 170 (dsDNA)
DNA 1: TCCTGAACTATTCACTGTGGTGATGAAATATGCTAA
DNA 2: TTAGCATATTTCATCACCACAGTGAATAGTTCAGGA
B37: Table S2 B row 1486 (dsDNA)
DNA 1: TCTGTCGTCCCACTTCCTGCTGCGGATTCCACCTCG
DNA 2: CGAGGTGGAATCCGCAGCAGGAAGTGGGACGACAGA
B38: Table S2 B row 1299 (dsDNA)
DNA 1: AGGAGTGTCACTTCCTCTTTCCTCACCAGAGCCTCC
DNA 2: GGAGGCTCTGGTGAGGAAAGAGGAAGTGACACTCCT
B39: Table S2 B row 2841 (dsDNA)
DNA 1: CCTGTTTCCTGCCATCTGCCCTTCCTTTGGGGTCAA
DNA 2: TTGACCCCAAAGGAAGGGCAGATGGCAGGAAACAGG

This series has as its target T1, ETS1. The series can be described thus: gcPBM; 1 nM ETS1. The settings on record: tags: N-terminal GST (pDEST15), kept (PMC6008103); label: surface-attached array probe.
Take B1: the binding signal is 9480 PBM fluorescence, median of replicate spots.

With B2, the binding signal was 12000 PBM fluorescence, median of replicate spots.

As to B3, the binding signal is 37100 PBM fluorescence, median of replicate spots.

Turning to B4, the binding signal was 11300 PBM fluorescence, median of replicate spots.

For B5, the binding signal was 442 PBM fluorescence, median of replicate spots.

For the molecule B6, the binding signal is 11000 PBM fluorescence, median of replicate spots.

With B7, the binding signal is 438 PBM fluorescence, median of replicate spots.

B8: the binding signal is 9110 PBM fluorescence, median of replicate spots.

For the molecule B9, the binding signal is 428 PBM fluorescence, median of replicate spots.

Turning to B10, the binding signal is 437 PBM fluorescence, median of replicate spots.

Consider B11, for which the binding signal was 436 PBM fluorescence, median of replicate spots.

For the molecule B12, the binding signal is 421 PBM fluorescence, median of replicate spots.

In the case of B13, the binding signal was 440 PBM fluorescence, median of replicate spots.

Regarding B14, the binding signal is 421 PBM fluorescence, median of replicate spots.

In the case of B15, the binding signal is 10400 PBM fluorescence, median of replicate spots.

In the case of B16, the binding signal was 437 PBM fluorescence, median of replicate spots.

B17: the binding signal was 9890 PBM fluorescence, median of replicate spots.

Turning to B18, the binding signal was 425 PBM fluorescence, median of replicate spots.

Regarding B19, the binding signal was 8950 PBM fluorescence, median of replicate spots.

In the case of B20, the binding signal is 434 PBM fluorescence, median of replicate spots.

Turning to B21, the binding signal was 35000 PBM fluorescence, median of replicate spots.

Turning to B22, the binding signal was 439 PBM fluorescence, median of replicate spots.

For B23, the binding signal was 429 PBM fluorescence, median of replicate spots.

On to B24, for which the binding signal was 440 PBM fluorescence, median of replicate spots.

Consider B25, for which the binding signal is 11800 PBM fluorescence, median of replicate spots.

Consider B26, for which the binding signal was 426 PBM fluorescence, median of replicate spots.

Take B27: the binding signal is 8570 PBM fluorescence, median of replicate spots.

B28: the binding signal is 9790 PBM fluorescence, median of replicate spots.

Turning to B29, the binding signal is 8430 PBM fluorescence, median of replicate spots.

Consider B30, for which the binding signal is 8730 PBM fluorescence, median of replicate spots.

For the molecule B31, the binding signal is 8120 PBM fluorescence, median of replicate spots.

B32: the binding signal was 10100 PBM fluorescence, median of replicate spots.

Consider B33, for which the binding signal was 422 PBM fluorescence, median of replicate spots.

In the case of B34, the binding signal was 10800 PBM fluorescence, median of replicate spots.

As for B35, the binding signal was 431 PBM fluorescence, median of replicate spots.

For B36, the binding signal is 432 PBM fluorescence, median of replicate spots.

Turning to B37, the binding signal was 12200 PBM fluorescence, median of replicate spots.

Take B38: the binding signal was 9350 PBM fluorescence, median of replicate spots.

B39: the binding signal was 8210 PBM fluorescence, median of replicate spots.
